In experiment [1] the target is T1, 14-3-3η (Homo sapiens, UniProt Q04917).
T1 construct: full length proteins were concentrated by centrifugation; His tag (pProEx HTb vector) (N); made in house; host or cells: E. coli BL21(DE3)
T1 sequence (Q04917 1-246): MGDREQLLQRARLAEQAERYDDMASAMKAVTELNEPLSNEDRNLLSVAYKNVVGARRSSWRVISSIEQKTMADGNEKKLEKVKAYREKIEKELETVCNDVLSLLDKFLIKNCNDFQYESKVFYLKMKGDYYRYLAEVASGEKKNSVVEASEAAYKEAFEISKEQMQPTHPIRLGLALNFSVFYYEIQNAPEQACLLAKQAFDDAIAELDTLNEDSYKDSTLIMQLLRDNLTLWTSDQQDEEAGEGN
In words: Fluorescence anisotropy (FA) competition assay against tracer hDMX361–374^pSer367*. In kind it is binding. Particulars: 50 nM hDMX361–374^pSer367*. Here is the method: A fluorescence anisotropy (FA) competition assay was subsequently carried out using conditions previously found suitable for acylhydrazone formation (pH 6.5, 50 mM NH4OAc, 10 mM aniline) with added DTT (1 mM) to supress disulfide formation. hDMX361–369^pSer367Gly-hydrazide was used to compete with a tracer peptide: hDMX361–374^pSer367* for binding to 14-3-3η (Fig S2, ESI ^†). […] Initial attempts to screen in cocktails, established the aldehydes had no affect on their own (Fig. S3, ESI ^†). We then performed an assay where each aldehyde was screened individually with hDMX361–369^pSer367Gly-hydrazide. A decrease in anisotropy can be attributed to a particular hydrazone product, avoiding the additional step of product identification e.g. by HRMS, and, combines the equilibration step for hydrazone formation with 14-3-3η screening (Fig. 2a). […] To confirm the single-concentration results, a competition assay was performed (Fig. 2b). hDMX361–369^pSer367Gly-hydrazide was equilibrated with 5 equivalents of each aldehyde (product formation confirmed by LC-MS, see Fig. S4, ESI ^†), and serially diluted against the tracer peptide (hDMX361–374^pSer367*) and 14-3-3η protein.
Fig. 2 Dynamic ligation screening based on hDMX361–369^pSer367Gly-hydrazide (a) Anisotropy values of individually screened hydrazones (relative to buffer, zero activity negative control in grey), hDMX361–374^pSer367 (blue) and hDMX361–369^pSer367Gly-hydrazide (red) as positive controls with hits (hDMX361–369^pSer367Gly-hydrazone-FC45 and hDMX361–369^pSer367Gly-hydrazone-SIG17) highlighted in orange boxes (10 μM acetylated hydrazide peptide mixed with 5 eq. of aldehyde, 1 μM 14-3-3η, 50 nM hDMX361–374^pSer367*, 50 mM NH4OAc, 10 mM aniline and 1 mM DTT) (b) competition FA curves for hydrazones taken forward as hits (50 nM hDMX361–374^pSer367*, 1 μM 14-3-3η in 50 mM NH4OAc, 10 mM aniline and 1 mM DTT).
Fig. 3 Dynamic ligation screening based on hDMX361–370^pSer367Gly-hydrazide (a) anisotropy values of individually screened hydrazones (relative to buffer, zero activity negative control in grey), hDMX361–374^pSer367 (blue) and hDMX361–370^pSer367Gly-hydrazide (red) as positive controls with hits highlighted in black boxes (10 μM acetylated hydrazide peptide mixed with 5 eq. of aldehyde, 1 μM 14-3-3η, 50 nM hDMX361–374^pSer367*, 50 mM NH4OAc, 10 mM aniline and 1 mM DTT) (b) representative competition FA curves for hydrazones taken forwards as hits (50 nM hDMX361–374^pSer367*, 1 μM 14-3-3η in 50 mM NH4OAc, 10 mM aniline and 1 mM DTT). […]
Screening was performed using fluorescence anisotropy competition assay, in 50 mM NH4Ac pH 6.5 buffer containing 10 mM aniline, 1 mM DTT. […]

For experiment [2], the target named is T2, hDMX361–369pSer367Gly-hydrazide 361-369 (Homo sapiens, UniProt O15151).
T2 chain: DCRRTI[pS]APG-hydrazide
In words: fluorescence anisotropy competition.

Experiment [3] has as its target T3, hDMX361–369pSer367Gly-hydrazone-FC45 361-369 (Homo sapiens, UniProt O15151, reading uncertain; also: printed as hDMX361–369pSer367Gly-hydrazone-FC45 361-369).
T3 chain: DCRRTI[pS]APG-{hydrazone‑FC45}
In words: fluorescence anisotropy competition.

For experiment [4], the target named is T4, hDMX361–369pSer367Gly-hydrazone-SIG17 361-369 (Homo sapiens, UniProt O15151, reading uncertain; also: printed as hDMX361–369pSer367Gly-hydrazone-SIG17 361-369).
T4 chain: DCRRTI[pS]APG-{hydrazone‑SIG17}
Briefly: fluorescence anisotropy competition.

For experiment [5], the target named is T5, hDMX361–374pSer367 361-374 (Homo sapiens, UniProt O15151).
T5 chain: DCRRTI[pS]APVVRPK
In words: fluorescence anisotropy competition.

For experiment [6], the target named is T6, hDMX361–370pSer367Gly* 361-370 (Homo sapiens, UniProt O15151, also: FAM-Ahx, end not given here).
T6 chain: {FAM-Ahx}-DCRRTI[pS]APVG
In words: fluorescence anisotropy.

[7] abbreviates: Fig. 2b experiment, hydrazide equilibrated with 5 eq. aldehyde, serially diluted, 1 μM 14-3-3η, 50 mM NH4OAc, 10 mM aniline, 1 mM DTT, pH 6.5.

Among the data in paper PMC9092428, “Towards identification of protein–protein interaction stabilizers via inhibitory peptide-fragment hybrids using templated fragment ligation” (RSC Chemical Biology, 2022) are IC50 and Kd values, retold here.

Square brackets hold non-standard residues; d marks the D form. Ends that are not written are not given here. Peptide text beside a SMILES is read from it. hydrazide = C-terminal Gly-hydrazide; hydrazone‑SIG17 = not defined here; hydrazone‑FC45 = not defined here; pS = N[C@@H](COP(=O)(O)O)C(=O)O; Ahx = NCCCCCC(=O)O

Turning to `CC[C@H](C)[C@H](NC(=O)[C@@H](NC(=O)[C@H](CCCNC(=N)N)NC(=O)[C@H](CCCNC(=N)N)NC(=O)[C@H](CS)NC(=O)[C@H](CC(=O)O)NC(C)=O)[C@@H](C)O)C(=O)N[C@@H](COP(=O)(O)O)C(=O)N[C@@H](C)C(=O)N1CCC[C@H]1C(=O)NCC(=O)NN` [hDMX361–369^pSer367Gly-hydrazide] (HELM PEPTIDE1{[ac].D.C.R.R.T.I.[O=C([C@H](COP(=O)(O)O)N[*:1])[*:2]].A.P.G.[NN[*:1]]}$$$$V2.0), the IC50 in experiment [1] (setting [7]) was 8.2 ± 1.3 µM.

For the molecule `CC[C@H](C)[C@H](NC(=O)[C@@H](NC(=O)[C@H](CCCNC(=N)N)NC(=O)[C@H](CCCNC(=N)N)NC(=O)[C@H](CS)NC(=O)[C@H](CC(=O)O)NC(C)=O)[C@@H](C)O)C(=O)N[C@@H](COP(=O)(O)O)C(=O)N[C@@H](C)C(=O)N1CCC[C@H]1C(=O)NCC(=O)N/N=C/c1cc(Br)cc([N+](=O)[O-])c1` [hDMX361–369^pSer367Gly-hydrazone-FC45] (HELM PEPTIDE1{[ac].D.C.R.R.T.I.[O=C([C@H](COP(=O)(O)O)N[*:1])[*:2]].A.P.G.[O=[N+]([O-])c1cc(Br)cc(/C=N/N[*:1])c1]}$$$$V2.0), the 50% inhibitory concentration (IC50) in experiment [1] (setting [7]) is 10.4 ± 0.3 µM.

Molecule `CC[C@H](C)[C@H](NC(=O)[C@@H](NC(=O)[C@H](CCCNC(=N)N)NC(=O)[C@H](CCCNC(=N)N)NC(=O)[C@H](CS)NC(=O)[C@H](CC(=O)O)NC(C)=O)[C@@H](C)O)C(=O)N[C@@H](COP(=O)(O)O)C(=O)N[C@@H](C)C(=O)N1CCC[C@H]1C(=O)N[C@H](C(=O)NCC(=O)NN)C(C)C` [hDMX361–370^pSer367Gly-hydrazide] (HELM PEPTIDE1{[ac].D.C.R.R.T.I.[O=C([C@H](COP(=O)(O)O)N[*:1])[*:2]].A.P.V.G.[NN[*:1]]}$$$$V2.0) returned an IC50 in experiment [1] (Fig. 3b experiment, 1 μM 14-3-3η in 50 mM NH4OAc, 10 mM aniline and 1 mM DTT) of 8.5 ± 1.6 µM.

B1: 14-3-3η (protein)
chain: GDREQLLQRARLAEQAERYDDMASAMKAVTELNEPLSNEDRNLLSVAYKNVVGARRSSWRVISSIEQKTMADGNEKKLEKVKAYREKIEKELETVCNDVLSLLDKFLIKNCNDFQYESKVFYLKMKGDYYRYLAEVASGEKKNSVVEASEAAYKEAFEISKEQMQPTHPIRLGLALNFSVFYYEIQNAPEQACLLAKQAFDDAIAELDTLNEDSYKDSTLIMQLLRDNLTLWTSDQQDEEAGEGN
Consider B1, for which the IC50 came to 8.2 µM in experiment [2], 10.4 µM in experiment [3], 13.7 µM in experiment [4] and 8.5 µM in experiment [5]. The same molecule gave a Kd in experiment [6] of 172 nM.
